Results from US5661126.

Molecular target: recombinant human Mullerian Inhibiting Substance (human) (UniProt P03971)
Test: absorption of DG-MIS with IgG (1:3) and Protein A Sepharose, MIS in supernatant by ELISA; MIS alone 9.0 nM

normal rabbit IgG (Dako Corporation, Denmark Lot 108) (polyclonal serum or antibody)
MIS level left after absorption: 8.8 nM
